Assay results published in PMC3401474.

Tests used:
Assay in all cases: SPR
rat HER2 (rHER2) = rat HER2 (rHER2) (rat, UniProt P06494 23-654)
human HER2 (hHER2) = human HER2 (hHER2) (human, UniProt P04626 23-652)
human EphA2 (hEphA2) = human EphA2 (hEphA2) (human, UniProt P29317 24-537)
human EphA2 (hEphA2), sequence (P29317 24-537): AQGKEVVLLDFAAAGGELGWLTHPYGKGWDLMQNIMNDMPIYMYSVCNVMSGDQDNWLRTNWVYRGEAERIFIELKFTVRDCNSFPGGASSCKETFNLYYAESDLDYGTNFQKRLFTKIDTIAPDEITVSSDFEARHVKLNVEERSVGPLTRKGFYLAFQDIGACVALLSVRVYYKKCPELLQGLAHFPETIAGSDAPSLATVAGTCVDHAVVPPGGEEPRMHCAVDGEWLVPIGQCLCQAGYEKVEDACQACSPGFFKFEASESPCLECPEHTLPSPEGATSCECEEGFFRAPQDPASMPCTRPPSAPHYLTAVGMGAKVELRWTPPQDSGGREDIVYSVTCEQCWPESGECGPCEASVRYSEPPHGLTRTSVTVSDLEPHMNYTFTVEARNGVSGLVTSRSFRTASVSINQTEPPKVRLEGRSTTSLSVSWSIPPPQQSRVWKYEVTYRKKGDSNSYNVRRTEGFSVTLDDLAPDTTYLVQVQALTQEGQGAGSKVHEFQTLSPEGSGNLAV

rat HER2 (rHER2), sequence (P06494 23-654): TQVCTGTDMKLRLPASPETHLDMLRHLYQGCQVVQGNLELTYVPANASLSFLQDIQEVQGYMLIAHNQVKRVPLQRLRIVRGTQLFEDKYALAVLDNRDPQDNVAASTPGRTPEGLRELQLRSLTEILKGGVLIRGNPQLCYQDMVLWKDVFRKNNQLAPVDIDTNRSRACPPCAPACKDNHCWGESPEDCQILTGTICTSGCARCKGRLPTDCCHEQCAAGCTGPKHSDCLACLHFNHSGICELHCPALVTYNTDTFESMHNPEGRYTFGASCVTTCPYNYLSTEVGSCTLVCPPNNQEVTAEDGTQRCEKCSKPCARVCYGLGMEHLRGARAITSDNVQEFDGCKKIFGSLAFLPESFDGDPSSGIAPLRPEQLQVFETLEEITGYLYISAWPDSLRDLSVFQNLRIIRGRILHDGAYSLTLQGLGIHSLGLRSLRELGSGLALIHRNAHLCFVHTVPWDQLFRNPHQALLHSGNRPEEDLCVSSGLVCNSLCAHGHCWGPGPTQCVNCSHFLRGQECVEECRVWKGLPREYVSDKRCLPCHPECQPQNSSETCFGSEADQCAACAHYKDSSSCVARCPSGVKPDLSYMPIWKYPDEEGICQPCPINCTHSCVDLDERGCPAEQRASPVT

Binder | Kd (rat HER2 (rHER2)) [nM] | binding result (human HER2 (hHER2)) | binding result (human EphA2 (hEphA2))
C1 (XNA, 2'-fluoro C and U (2'-OH A and G)) RNA: GGGAGGACGAUGCGGCUGUCUACCUUCUACUGCCGCAGACGACUCGCCCGA | 45.8 | no binding | no binding
B1 (XNA, 2'-fluoro C and U (2'-OH A and G)) RNA: GGGAGGACGAUGCGGUCUGUUGUGCUUGAUAUGCCCCAGACGACUCGCCCGA | 85.2 | no binding | no binding
E1 (XNA, 2'-fluoro C and U (2'-OH A and G)) RNA: GGGAGGACGAUGCGGUCCUGUCGUCUGUUCGUCCCCAGACGACUCGCCCGA | 60.8 | – | –
